In patent publication US11814435B2, “Therapeutic antibodies and their uses” (PFIZER INC., priority 2015, dated 2023):
Residue numbers refer to the chain shown, from its start.

T1: hBCMA (human BCMA) (Homo sapiens, UniProt Q02223)
T1 sequence (Q02223 1-184): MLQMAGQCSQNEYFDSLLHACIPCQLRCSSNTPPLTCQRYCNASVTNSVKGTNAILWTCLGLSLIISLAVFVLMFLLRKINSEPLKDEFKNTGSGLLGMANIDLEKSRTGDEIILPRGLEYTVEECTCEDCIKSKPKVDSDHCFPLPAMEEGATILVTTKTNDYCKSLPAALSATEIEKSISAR

B1: A02_Rd4_6 nM_C26: anti-BCMA antibody (antibody, V domains shown)
VH: EVQLLESGGGLVQPGGSLRLSCAASGFTFSSYAMNWVRQAPGKGLEWVSAISDSGGSTYYADSVKGRFTISRDNSKNTLYLQMNSLRAEDTAVYYCARYWPMSLWGQGTLVTVSS
VL: EIVLTQSPGTLSLSPGERATLSCRASQSVSSLYLAWYQQKPGQAPRLLMYDASIRATGIPDRFSGSGSGTDFTLTISRLEPEDFAVYYCQQYQVWPLTFGQGTKVEIK
B2: A02_Rd4_6 nM_C19: anti-BCMA antibody (antibody, V domains shown)
VH: B1 VH with T58R, Y59W, L104D
VL: B1 VL with S31V, Q93L, V94A
B3: A02_Rd4_6 nM_C22: anti-BCMA antibody (antibody, V domains shown)
VH: B1 VH with I51V, S52L, S103T, L104P
VL: B1 VL with L32S
B4: A02_Rd4_6 nM_C25: anti-BCMA antibody (antibody, V domains shown)
VH: B1 VH with T58R, Y59W, S103T, L104P
VL: B1 VL with L32S, Q93L, V94D
B5: A02_Rd4_0.6 nM_C03: anti-BCMA antibody (antibody, V domains shown)
VH: B1 VH with T58K, Y59W
VL: B1 VL with L32S, Q93F, V94T
B6: L3.PY/L1.FF/H3.TAQ: anti-BCMA antibody (antibody, V domains shown)
VH: EVQLLESGGGLVQPGGSLRLSCAASGFTFGSYAMTWVRQAPGKGLEWVSAISGSGGNTFYADSVKGRFTISRDNSKNTLYLQMNSLRAEDTAVYYCTRVSPIAAQMDYWGQGTLVTVSS
VL: EIVLTQSPGTLSLSPGERATLSCRASQSVSSFFLAWYQQKPGQAPRLLIYGASSRATGIPDRFSGSGSGTDFTLTISRLEPEDFAVYYCQHYPYPPSFTFGQGTKVEIK
B7: L3.PY/L3.KY/H3.TAQ: anti-BCMA antibody (antibody, V domains shown)
VH: B6 VH
VL: B6 VL with F32S, F33Y, Q90K, H91Y
B8: L3.PY/L3.KF/H2.QL: anti-BCMA antibody (antibody, V domains shown)
VH: B6 VH with S63Q, V64L, T97A, A104S, Q105G
VL: B6 VL with F32S, F33Y, Q90K, H91F
B9: L3.PY/L1.PH/H2.QR: anti-BCMA antibody (antibody, V domains shown)
VH: B6 VH with S63Q, V64R, T97A, A104S, Q105G
VL: B6 VL with S31P, F32H, F33Y
B10: L3.PY/L3.KF/H2.LT: anti-BCMA antibody (antibody, V domains shown)
VH: B6 VH with G53L, S54T, T97A, A104S, Q105G
VL: B6 VL with F32S, F33Y, Q90K, H91F
B11: L3.PY/L1.PH/H3.AE: anti-BCMA antibody (antibody, V domains shown)
VH: B6 VH with T97A, Q105E
VL: B6 VL with S31P, F32H, F33Y
B12: L3.PY/L3.KY/H2.DY: anti-BCMA antibody (antibody, V domains shown)
VH: B6 VH with S52D, G53Y, T97A, A104S, Q105G
VL: B6 VL with F32S, F33Y, Q90K, H91Y
B13: L3.PY/L1.PH/H2.HA: anti-BCMA antibody (antibody, V domains shown)
VH: B6 VH with G53H, S54A, T97A, A104S, Q105G
VL: B6 VL with S31P, F32H, F33Y
B14: L3.PY/L1.PH/H3.TAQ: anti-BCMA antibody (antibody, V domains shown)
VH: B6 VH
VL: B6 VL with S31P, F32H, F33Y
B15: L3.PY/L3.KY/H2.YQ: anti-BCMA antibody (antibody, V domains shown)
VH: B6 VH with G53Y, S54Q, T97A, A104S, Q105G
VL: B6 VL with F32S, F33Y, Q90K, H91Y
B16: L3.PY/L3.KY/H2.QL: anti-BCMA antibody (antibody, V domains shown)
VH: B6 VH with S63Q, V64L, T97A, A104S, Q105G
VL: B6 VL with F32S, F33Y, Q90K, H91Y
B17: L3.PY/L3.KY/H2.HA: anti-BCMA antibody (antibody, V domains shown)
VH: B6 VH with G53H, S54A, T97A, A104S, Q105G
VL: B6 VL with F32S, F33Y, Q90K, H91Y
B18: L3.PY/L3.KF/H2.DY: anti-BCMA antibody (antibody, V domains shown)
VH: B6 VH with S52D, G53Y, T97A, A104S, Q105G
VL: B6 VL with F32S, F33Y, Q90K, H91F
B19: L3.PY/L3.KY/H2.QR: anti-BCMA antibody (antibody, V domains shown)
VH: B6 VH with S63Q, V64R, T97A, A104S, Q105G
VL: B6 VL with F32S, F33Y, Q90K, H91Y
B20: L3.PY/L3.KY/H3.YA: anti-BCMA antibody (antibody, V domains shown)
VH: B6 VH with T97A, A103Y, Q105G
VL: B6 VL with F32S, F33Y, Q90K, H91Y
B21: L3.PY/L3.KF/H2.YQ: anti-BCMA antibody (antibody, V domains shown)
VH: B6 VH with G53Y, S54Q, T97A, A104S, Q105G
VL: B6 VL with F32S, F33Y, Q90K, H91F
B22: L3.PY/L3.KY/H2.LT: anti-BCMA antibody (antibody, V domains shown)
VH: B6 VH with G53L, S54T, T97A, A104S, Q105G
VL: B6 VL with F32S, F33Y, Q90K, H91Y

system: Cyno BCMA; assay: Kinetics and affinity of cyno BCMA/human IgG interactions by SPR (Bio-Rad Proteon XPR36); type: binding, cynomolgus; details: 37° C.

Molecule	ka Cyno	kd Cyno	Kd
B1	2.21e+06 M⁻¹ s⁻¹	0.000448 s⁻¹	
B2	2.54e+06 M⁻¹ s⁻¹	0.000661 s⁻¹	0.26 nM
B3	1.84e+06 M⁻¹ s⁻¹	0.000324 s⁻¹	
B4	1.5e+06 M⁻¹ s⁻¹	0.00033 s⁻¹	
B5	2.12e+06 M⁻¹ s⁻¹	0.000426 s⁻¹	

system: cyBCMA; assay: Kinetics and affinity of cyBCMA/human IgG interactions by SPR (Bio-Rad Proteon XPR36); type: binding, cynomolgus; details: 37° C.

Molecule	ka (1/Ms) cyBCMA @ 37° C.	kd (1/s) cyBCMA @37° C.
B6	2.32e+06 M⁻¹ s⁻¹	0.00376 s⁻¹
B7	1.81e+06 M⁻¹ s⁻¹	0.00192 s⁻¹
B8	1.42e+06 M⁻¹ s⁻¹	0.0031 s⁻¹
B9	2.42e+06 M⁻¹ s⁻¹	0.00436 s⁻¹
B10	1.91e+06 M⁻¹ s⁻¹	0.00413 s⁻¹
B11	2.61e+06 M⁻¹ s⁻¹	0.00202 s⁻¹
B12	1.96e+06 M⁻¹ s⁻¹	0.00243 s⁻¹
B13	1.61e+06 M⁻¹ s⁻¹	0.00553 s⁻¹
B14	2.51e+06 M⁻¹ s⁻¹	0.0032 s⁻¹
B15	1.27e+06 M⁻¹ s⁻¹	0.00258 s⁻¹
B16	2.75e+06 M⁻¹ s⁻¹	0.00409 s⁻¹
B17	2.28e+06 M⁻¹ s⁻¹	0.00318 s⁻¹
B18	2.08e+06 M⁻¹ s⁻¹	0.00368 s⁻¹
B19	2.05e+06 M⁻¹ s⁻¹	0.00774 s⁻¹
B20	1.84e+06 M⁻¹ s⁻¹	0.00428 s⁻¹
B21	1.41e+06 M⁻¹ s⁻¹	0.00501 s⁻¹
B22	1.82e+06 M⁻¹ s⁻¹	0.00232 s⁻¹

molecular target: T1, hBCMA (human BCMA); assay: Kinetics and affinity of hBCMA/human IgG interactions by SPR (Bio-Rad Proteon XPR36); type: binding; details: huBCMA, 37° C.
Procedure, shortened: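 Anti-BCMA IgGs were amine-coupled to a GLC chip, and hBCMA analyte was injected as a single-cycle kinetic titration (0.08, 0.4, 2, 10, 50 nM; 2 min each) at 37° C. or 25° C. in HBS-T+ pH 7.4 with 1 mg/mL BSA. Dissociation was followed 2 hours, with double-referenced 1:1 Langmuir-plus-mass-transport fitting.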

Molecule	ka (1/Ms) huBCMA @ 37° C.	kd (1/s) huBCMA @37° C.
B6	3.52e+06 M⁻¹ s⁻¹	0.00189 s⁻¹
B7	2.79e+06 M⁻¹ s⁻¹	0.000649 s⁻¹
B8	2.07e+06 M⁻¹ s⁻¹	0.00125 s⁻¹
B9	3.69e+06 M⁻¹ s⁻¹	0.00236 s⁻¹
B10	2.75e+06 M⁻¹ s⁻¹	0.00191 s⁻¹
B11	3.68e+06 M⁻¹ s⁻¹	0.00134 s⁻¹
B12	3.19e+06 M⁻¹ s⁻¹	0.000642 s⁻¹
B13	2.37e+06 M⁻¹ s⁻¹	0.00116 s⁻¹
B14	3.58e+06 M⁻¹ s⁻¹	0.00213 s⁻¹
B15	2.14e+06 M⁻¹ s⁻¹	0.00165 s⁻¹
B16	3.65e+06 M⁻¹ s⁻¹	0.00208 s⁻¹
B17	3.29e+06 M⁻¹ s⁻¹	0.00163 s⁻¹
B18	2.74e+06 M⁻¹ s⁻¹	0.00182 s⁻¹
B19	2.95e+06 M⁻¹ s⁻¹	0.00099 s⁻¹
B20	3.3e+06 M⁻¹ s⁻¹	0.000912 s⁻¹
B21	1.96e+06 M⁻¹ s⁻¹	0.00223 s⁻¹
B22	2.92e+06 M⁻¹ s⁻¹	0.000906 s⁻¹

same assay, conditions: human BCMA, 37° C.

Molecule	ka Human	kd Human	Kd
B1	4.26e+06 M⁻¹ s⁻¹	0.000139 s⁻¹	
B2	3e+06 M⁻¹ s⁻¹	0.000148 s⁻¹	0.049 nM
B3	3.38e+06 M⁻¹ s⁻¹	0.000182 s⁻¹	
B4	2.75e+06 M⁻¹ s⁻¹	0.00018 s⁻¹	
B5	4.27e+06 M⁻¹ s⁻¹	0.000182 s⁻¹	
